We go through ten molecules from patent publication US20020147170A1 (priority 2000, published 2002).

Test [1] concerns the target wild-type rat mu opioid receptor (rat). The experiment in a line: cell-based or functional assay.
In test [2] the target is Asn150Ala mutant rat mu opioid receptor (rat) (UniProt P33535). As to the kind of experiment: cell-based or functional assay.
The next test relates to PTH receptor. The following applies: COS-7 cells; cited from earlier work.
Another test relates to α1 adrenergic receptor. As to conditions: cited from earlier work.
The subject of a further test is rat mu opioid receptor. As to the kind of experiment: SRE-Luc/Gq5i luciferase reporter assay in HEK293 cells. The class given is cell-based. As to conditions: SRE + Gq5i, HEK293 cells. The source says: A positive assay for Gαi coupling (i.e., one that yields an increase in luciferase activity upon receptor activation, instead of a negative assay, one that yields a decrease in luciferase activity upon receptor activation), provides a detectable output signal and less interassay variation. It was hypothesized that Gαi coupling could be detected by altering the signaling pathway generated by Gαi coupled receptors. A chimeric G protein (Gqi5, Broach and Thorner, Nature 384 (Suppl.): 14-16 (1996)) that contains the entire Gαq protein having five C-terminal amino acids from Gαi attached to the C-terminus of Gαq has been generated. This chimeric G protein is recognized as Gαi by Gαi coupled receptors, but switches the receptor induced signaling from Gαi to Gαq. This allows Gαi receptor coupling to be detected using a positive assay by use of the Gαq responsive SMS-Luc or SRE-Luc construct (Stratagene, La Jolla, Calif.). SMS and SRE preferably respond to Gαq mediated inositol and calcium production. Moreover, detection can be carried out in the absence of forskolin pre-stimulation of cells.
Reagents & Solutions: The cell culture media used in the assays described below was Gibco BRL #12100-046. This media was made according to manufacturer's recipe, pH adjusted to 7.2, filtered (0.22 micron pore), and supplemented with 1% Pen/Strep (Gibco #15140-122; 100% penicillin G 10,000 units/ml, and streptomycin 10,000 μg/ml) and 10% fetal bovine serum. Cell culture media lacking 10% fetal bovine serum was also generated. DNA used in the transfection experiments was purified and quantitated by measuring the absorbance at OD260. A LucLite Luciferase Assay Kit (Packard) was used to quantitate luciferase activity. Transfections were carried out using LipofectAMINE Reagent (Gibco #18324-012).
The rat mu opioid receptor is a Gαi coupled receptor. Therefore we chose to use the Gq5i reporter system, described in detail above (Broach and Thorner, supra), which switches the signaling pathway from Gαi to Gαq for reliable positive readout. HEK293 cells were transfected with the reporter construct SRE-Luc, an expression vector containing nucleic acid encoding Gq5i (Broach and Thorner, supra), and an expression vector containing nucleic acid encoding either the wild-type or the Asn150Ala mutant rat mu opioid receptor. Basal and ligand-stimulated luciferase activity was measured. The ligand used in this assay was [D—Ala^2—MePhe^4, Gly-ol^5]enkephalin] (DAMGO). As a negative control, HEK293 cells were transfected with pcDNA1 (empty vector DNA), SRE-Luc, and the expression vector containing nucleic acid encoding Gq5i (Broach and Thorner, supra).
The luciferase assay was carried out as follows. On day 1, HEK293 cells in a T75 flask were washed with 15 ml serum-free media (or PBS), trypsinized with 5 ml 0.05% trypsin-EDTA (Gibco #25300-062), incubated at 37° C. for 3 minutes at which time 6-7 ml complete HEK293 media (Gibco #12100-046) and 10% Fetal Bovine Serum (Intergen #1050-90) were added. Thereafter, cells were collected in 50 ml centrifuge tubes, pelleted at 800-900 rpm (RCF˜275), and resuspend in 20 ml complete media. The cells were counted using a haemocytometer and diluted to 85,000 cells/ml in complete media. Using a repeat pipettor or cell plater, 100 μl of cells were added to each well of a Primaria 96-well plate (Falcon #353872). Cells were then incubated at 37° C., 5% CO2 until use at 48 hours.
On day 3, cells were transfected using LipofectAMINE™ according to the manufacturer's protocol (Gibco #18324-012, Rockville, Md.).
On day 4, cells were stimulated as follows. Ligands for the receptor, either DAMGO or a non-peptide ligand (e.g., naloxone or naltrexone), were diluted to a desired concentration in serum-free media containing 0.15 mM PMSF (or other protease inhibitor(s)). […]

Numbering of substitutions follows the chain as printed.

Turning to “[D-Ala^2-MePhe^4, Gly-ol^5]enkephalin (peptide)”, the Average Ligand Stimulated Activity (Light Emission) (light emission) in test [1] stood at 87500; in test [2], 87000.

B1: His223Arg: polymorphic constitutively active PTH receptor mutant from Jansen's metaphyseal chondrodysplasia patients (protein, UniProt Q03431 27-593, looked up, variant H223R)
Parathyroid …: DADDVMTKEEQIFLLHRAQAQCEKRLKEVLQRPASIMESDKGWTSASTSGKPRKDKASGKLYPESEEDKEAPTGSRYRGRPCLPEWDHILCWPLGAPGEVVAVPCPDYIYDFNHKGHAYRRCDRNGSWELVPGHNRTWANYSECVKFLTNETREREVFDRLGMIYTVGYSVSLASLTVAVLILAYFRRLHCTRNYIRMHLFLSFMLRAVSIFVKDAVLYSGATLDEAERLTEEELRAIAQAPPPPATAAAGYAGCRVAVTFFLYFLATNYYWILVEGLYLHSLIFMAFFSEKKYLWGFTVFGWGLPAVFVAVWVSVRATLANTGCWDLSSGNKKWIIQVPILASIVLNFILFINIVRVLATKLRETNAGRCDTRQQYRKLLKSTLVLMPLFGVHYIVFMATPYTEVSGTLWQVQMHYEMLFNSFQGFFVAIIYCFCNGEVQAEIKKSWSRWTLALDFKRKARSGSSSYSYGPMVSHTSVTNVGPRVGLGLPLSPRLLPTATTNGHPQLPGHAKPGTPALETLETTPPAMAAPKDDGFLNGSCSGLDEEASGPERPPALLQEEWETVM
In the case of B1, the “basal cyclic AMP accumulation vs cells expressing wild-type receptors” value in the test with PTH receptor was “four to six times higher”.

B2: Thr410Pro: polymorphic constitutively active PTH receptor missense mutant (protein, UniProt Q03431 27-593, looked up, variant T410P)
Parathyroid …: B1 Parathyroid … with R197H, T384P
Turning to B2, the “basal cyclic AMP accumulation vs cells expressing wild-type receptors” value in the test on PTH receptor is recorded as “four to six times higher”.

B3: Asp142Ala mutant: α1 adrenergic receptor DRY motif mutant (protein, UniProt P18841 1-515, looked up, variant D142A)
Alpha-1B adrenergic receptor: MNPDLDTGHNTSAPAQWGELKDANFTGPNQTSSNSTLPQLDVTRAISVGLVLGAFILFAIVGNILVILSVACNRHLRTPTNYFIVNLAIADLLLSFTVLPFSATLEVLGYWVLGRIFCDIWAAVDVLCCTASILSLCAISIARYIGVRYSLQYPTLVTRRKAILALLSVWVLSTVISIGPLLGWKEPAPNDDKECGVTEEPFYALFSSLGSFYIPLAVILVMYCRVYIVAKRTTKNLEAGVMKEMSNSKELTLRIHSKNFHEDTLSSTKAKGHNPRSSIAVKLFKFSREKKAAKTLGIVVGMFILCWLPFFIALPLGSLFSTLKPPDAVFKVVFWLGYFNSCLNPIIYPCSSKEFKRAFMRILGCQCRSGRRRRRRRRLGACAYTYRPWTRGGSLERSQSRKDSLDDSGSCMSGSQRTLPSASPSPGYLGRGAQPPLELCAYPEWKSGALLSLPEPPGRRGRLDSGPLFTFKLLGEPESPGTEGDASNGGCDATTDLANGQPGFKSNMPLAPGHF
Turning to B3, the constitutive activity result in the test with α1 adrenergic receptor was “constitutively active”.

B4: Ala204Val mutant: α1 adrenergic receptor mutant in transmembrane domain V (protein, UniProt P18841 1-515, looked up, variant A204V)
Alpha-1B adrenergic receptor: B3 Alpha-1B adrenergic receptor with A142D, A204V
As to B4, the constitutive activity entry in the test with α1 adrenergic receptor is “constitutively active”.

B5: Ala293Glu mutant: α1 adrenergic receptor mutant at carboxyl end of IC3 (protein, UniProt P18841 1-515, looked up, variant A293E)
Alpha-1B adrenergic receptor: B3 Alpha-1B adrenergic receptor with A142D, A293E
Consider B5, for which the constitutive activity result in the test on α1 adrenergic receptor is reported as “constitutively active”.

B6: Arg143Lys mutant: α1 adrenergic receptor DRY motif mutant (protein, UniProt P18841 1-515, looked up, variant R143K)
Alpha-1B adrenergic receptor: B3 Alpha-1B adrenergic receptor with A142D, R143K
For the molecule B6, the constitutive activity result in the test with α1 adrenergic receptor is “constitutively active”.

B7: Cys128Phe mutant: α1 adrenergic receptor mutant in transmembrane domain III (protein, UniProt P18841 1-515, looked up, variant C128F)
Alpha-1B adrenergic receptor: B3 Alpha-1B adrenergic receptor with C128F, A142D
Turning to B7, in the test with α1 adrenergic receptor, the constitutive activity result is recorded as “constitutively active”.

B8: Asn63Ala mutant: α1 adrenergic receptor mutant at conserved Asn63 (protein, UniProt P18841 1-515, looked up, variant N63A)
Alpha-1B adrenergic receptor: B3 Alpha-1B adrenergic receptor with N63A, A142D
With B8, the constitutive activity entry in the test on α1 adrenergic receptor was “constitutively active”.

B9: wild-type rat mu opioid receptor: wild-type rat mu opioid receptor expressed from an expression vector, comparator (protein, UniProt P33535 1-398, looked up)
Mu-type opioid receptor: MDSSTGPGNTSDCSDPLAQASCSPAPGSWLNLSHVDGNQSDPCGLNRTGLGGNDSLCPQTGSPSMVTAITIMALYSIVCVVGLFGNFLVMYVIVRYTKMKTATNIYIFNLALADALATSTLPFQSVNYLMGTWPFGTILCKIVISIDYYNMFTSIFTLCTMSVDRYIAVCHPVKALDFRTPRNAKIVNVCNWILSSAIGLPVMFMATTKYRQGSIDCTLTFSHPTWYWENLLKICVFIFAFIMPVLIITVCYGLMILRLKSVRMLSGSKEKDRNLRRITRMVLVVVAVFIVCWTPIHIYVIIKALITIPETTFQTVSWHFCIALGYTNSCLNPVLYAFLDENFKRCFREFCIPTSSTIEQQNSTRVRQNTREHPSTANTVDRTNHQLENLEAETAPLP
Consider B9, for which, in the test on rat mu opioid receptor (ligand DAMGO), the “Average Ligand Stimulated Activity (Light Emission)” value is reported as 87,461. For the same molecule, in the test with rat mu opioid receptor (no ligand), the “Average Basal Activity (Light Emission)” value is 8,436.
